T1: human claudin 9 (CLDN9) (human, UniProt O95484 1-217)
T1 construct: also called human CLDN9
T1 sequence: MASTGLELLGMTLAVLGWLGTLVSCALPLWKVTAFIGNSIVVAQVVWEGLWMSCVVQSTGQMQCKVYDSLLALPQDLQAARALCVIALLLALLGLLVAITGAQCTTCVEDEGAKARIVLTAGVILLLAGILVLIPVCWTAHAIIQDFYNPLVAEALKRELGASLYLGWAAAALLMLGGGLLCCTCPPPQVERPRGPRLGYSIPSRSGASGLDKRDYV

T2: Cyno CDεγ (recombinant cynomolgus CD3εγ) (cyno, UniProt Q95LI5 22-117; Q95LI7 23-113)
T2 construct: Printed as CDεγ; read as CD3εγ
T2 sequence (looked up) 1: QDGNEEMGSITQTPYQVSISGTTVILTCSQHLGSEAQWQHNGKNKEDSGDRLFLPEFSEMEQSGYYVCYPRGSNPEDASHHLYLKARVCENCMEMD
T2 sequence (looked up) 2: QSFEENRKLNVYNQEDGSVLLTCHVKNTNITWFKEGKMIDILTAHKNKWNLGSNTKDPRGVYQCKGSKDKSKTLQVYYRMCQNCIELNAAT

T3: human claudin 6 (CLDN6) (human, UniProt P56747 1-220)
T3 construct: also called human CLDN6; hCLDN6
T3 sequence: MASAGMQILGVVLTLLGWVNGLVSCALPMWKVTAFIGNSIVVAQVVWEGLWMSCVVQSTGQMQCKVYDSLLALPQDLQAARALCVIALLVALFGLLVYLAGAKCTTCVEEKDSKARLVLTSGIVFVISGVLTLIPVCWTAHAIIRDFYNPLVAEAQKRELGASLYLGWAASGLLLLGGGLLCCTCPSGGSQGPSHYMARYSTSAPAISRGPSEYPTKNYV

T4: mouse CLDN6 (mouse, UniProt Q9Z262 1-219)
T4 construct: whole, on cells
T4 sequence (looked up): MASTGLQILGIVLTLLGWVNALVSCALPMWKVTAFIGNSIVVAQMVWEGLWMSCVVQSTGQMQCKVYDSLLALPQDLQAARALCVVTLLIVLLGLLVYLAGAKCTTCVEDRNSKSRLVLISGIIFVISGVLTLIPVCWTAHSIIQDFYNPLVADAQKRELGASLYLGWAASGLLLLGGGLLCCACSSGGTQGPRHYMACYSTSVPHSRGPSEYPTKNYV


How the values were obtained:
human claudin 9 (CLDN9) [1] = target: T1, human claudin 9 (CLDN9); assay: flow cytometry on NCI-H1299 cells stably expressing human CLDN9, anti-human Fc gamma secondary, MFI (AF647) [right panel]
Protocol: Expressing vectors of human CLDN6 and CLDN9 were established by inserting synthesized cDNA coding corresponding sequences into mammalian expression vector. NCI-H1299 stable cells expressing human CLDN6 and CLDN9 were generated by transfection of corresponding plasmids. Cells were suspended at a concentration of 1×10⁶ cells in FACS buffer (2% FBS, 1×PBS), and the cell suspension was dispensed into a U-bottom 96-well plate ([…]). Antibody was added thereto at final top concentration of 100 nM and 2× dilute for 11 dilutions, then mixed with cells and incubated at 4° C. for 1 hour. After centrifugation, the reaction solution was removed, and the cells were washed twice with 200 μL/well FACS buffer. Then, APC-anti human Fcγ was diluted 500-fold with FACS buffer and added as secondary antibodies to the cells. The cells were incubated at 4° C. for 30 mins, then washed twice as above, and suspended in 100 μL FACS buffer. The cell suspension was subjected to flow cytometry.

[2] = target: T5, Human CDεγ (recombinant human CD3εγ) (human, UniProt P07766 23-126; P09693 23-116); assay: SPR, recombinant protein
T5 construct: Printed as CDεγ; read as CD3εγ
Protocol: (§1) The binding kinetics of CLDN6×CD3 BsAb BG143P were measured using SPR. SPR was used to measure the on-rate constant (kₐ) and off-rate constant (kd) of the antibodies to recombinant proteins of CDεγ and then determined the affinity constant (KD).

[3] = target: T2, Cyno CDεγ (recombinant cynomolgus CD3εγ); assay: SPR, recombinant protein
Protocol: as §1

[4] = target: T6, human native CD3 on live cells (HuT78, Jurkat) (human, UniProt P07766 23-207; P09693 23-182; P04234 22-171); assay: FACS, CD3-expressing Jurkat cells
T6 construct: whole, on cells; also called human CD3

human claudin 6 (CLDN6) [5] = target: T3, human claudin 6 (CLDN6); assay: FACS, CLDN6-expressing PA-1 cells
human claudin 9 (CLDN9) [6] = target: T1, human claudin 9 (CLDN9); assay: flow cytometry, CHOK1/human CLDN9-GFP cells
human claudin 6 (CLDN6) [7] = target: T3, human claudin 6 (CLDN6); assay: flow cytometry, CHOK1/human CLDN6-GFP cells
mouse CLDN6 = target: T4, mouse CLDN6; assay: flow cytometry, CHOK1/mouse CLDN6-GFP cells
human claudin 6 (CLDN6) [8] = target: T3, human claudin 6 (CLDN6); assay: flow cytometry, PA-1 cells (endogenous CLDN6)
cyno CLDN6 = target: T7, cyno CLDN6 (cyno); assay: flow cytometry, CHOK1/Cyno CLDN6-GFP cells
T7 construct: whole, on cells; also called cynomolgus CLDN6

T5 sequence (P07766 23-126, chain 1 of 2): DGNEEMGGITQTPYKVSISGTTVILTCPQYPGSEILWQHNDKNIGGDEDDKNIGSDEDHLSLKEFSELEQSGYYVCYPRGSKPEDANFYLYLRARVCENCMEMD
T5 sequence (P09693 23-116, chain 2 of 2): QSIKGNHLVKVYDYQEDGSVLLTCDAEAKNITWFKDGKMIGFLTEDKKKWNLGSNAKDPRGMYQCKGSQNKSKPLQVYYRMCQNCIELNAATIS
T6 sequence (P07766 23-207, chain 1 of 3): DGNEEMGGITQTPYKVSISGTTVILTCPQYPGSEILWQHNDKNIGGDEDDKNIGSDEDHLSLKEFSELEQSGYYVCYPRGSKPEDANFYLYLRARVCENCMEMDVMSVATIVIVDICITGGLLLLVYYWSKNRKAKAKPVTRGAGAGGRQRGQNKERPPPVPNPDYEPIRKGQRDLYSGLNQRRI
T6 sequence (P09693 23-182, chain 2 of 3): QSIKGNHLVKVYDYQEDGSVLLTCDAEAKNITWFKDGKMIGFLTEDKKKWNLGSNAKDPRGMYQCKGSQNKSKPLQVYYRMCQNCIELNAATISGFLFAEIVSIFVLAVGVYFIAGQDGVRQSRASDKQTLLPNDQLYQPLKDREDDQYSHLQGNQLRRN
T6 sequence (P04234 22-171, chain 3 of 3): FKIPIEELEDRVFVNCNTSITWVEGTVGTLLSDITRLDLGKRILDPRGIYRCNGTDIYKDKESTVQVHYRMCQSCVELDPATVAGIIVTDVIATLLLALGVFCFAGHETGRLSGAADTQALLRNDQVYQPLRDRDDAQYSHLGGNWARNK

Row | binding result (human claudin 9 (CLDN9) [1]) | Kd [2] | koff [2] | kon [2] | Kd [3] | koff [3] | kon [3] | EC50 [4] | EC50 (human claudin 6 (CLDN6) [5]) | binding result (human claudin 9 (CLDN9) [6]) | EC50 (human claudin 6 (CLDN6) [7]) | EC50 (mouse CLDN6) | EC50 (human claudin 6 (CLDN6) [8]) | EC50 (cyno CLDN6) | Binder
1 | no binding (tested: 100 nM) | 8.31 nM | 0.0181 s⁻¹ | 2.17e+06 M⁻¹ s⁻¹ | 4.55 nM | 0.00599 s⁻¹ | 1.32e+06 M⁻¹ s⁻¹ | 6.98 nM | 81.3 nM | – | – | – | – | – | CLDN6xCD3 BsAb BG143P (bispecific antibody, human IgG1, kappa, module ratio 1:1, Fc null huIgG1, knob into hole; also called CLDN6×CD3 BsAb; CLDN6×CD3 antibody) EVQLVESGGGLVQPGGSLRLSCAASGFTFSTYAMNWVRQAPGKGLEWVGRIRSKYNNYATYYADSVKGRFTISRDDAKNSLYLQMNSLRAEDTAVYYCVRHGNFGSSYVSWFAYWGQGTLVTVSSGGGGSGGGGSGGGGSEIVVTQSPATLSVSPGERATLSCRSSTGAVTTSNYANWVQQKPGQAPRGLIGGTNKRAPGIPARFSGSLSGDEATLTISSLQSEDFAVYYCALWYSNLWVFGGGTKVEIKEPKSSDKTHTCPPCPAPPAAGPSVFLFPPKPKDTLMISRTPEVTCVVVDVSHEDPEVKFNWYVDGVEVHNAKTKPREEQYNSTYRVVSVLTVLHQDWLNGKEYKCKVSNKALAAPIEKTISKAKGQPREPQVYTLPPSRDELTKNQVSLWCLVKGFYPSDIAVEWESNGQPENNYKTTPPVLDSDGSFFLYSKLTVDKSRWQQGNVFSCSVMHEALHNHYTQKSLSLSPGK heavy: EVQLQESGGGLVQPGGSLRLSCAASGYSFSDYHINWVRQAPGKGLEWVGYIYPGSGHTKYNEKFKGRFTISRDTSSNTAYLQMNSLRAEDTAVYYCARSGIYHYVSSYYFDHWGQGTLVTVSSASTKGPSVFPLAPSSKSTSGGTAALGCLVKDYFPEPVTVSWNSGALTSGVHTFPAVLQSSGLYSLSSVVTVPSSSLGTQTYICNVNHKPSNTKVDKKVEPKSCDKTHTCPPCPAPPAAGPSVFLFPPKPKDTLMISRTPEVTCVVVDVSHEDPEVKFNWYVDGVEVHNAKTKPREEQYNSTYRVVSVLTVLHQDWLNGKEYKCKVSNKALAAPIEKTISKAKGQPREPQVYTLPPSRDELTKNQVSLSCAVKGFYPSDIAVEWESNGQPENNYKTTPPVLDSDGSFFLVSKLTVDKSRWQQGNVFSCSVMHEALHNHYTQKSLSLSPGK light: DIQMTQSPSSLSASVGDRVTITCKASQDAGSAVAWYQQKPGKAPKLLIYWASTRHTGVPSRFSGSGSGTDFTLTISSLQPEDFATYYCQQYSSYTFGGGTKLEIKRTVAAPSVFIFPPSDEQLKSGTASVVCLLNNFYPREAKVQWKVDNALQSGNSQESVTEQDSKDSTYSLSSTLTLSKADYEKHKVYACEVTHQGLSSPVTKSFNRGEC
2 | – | – | – | – | – | – | – | – | – | no binding | 3.41 nM | 94.7 nM | 3.38 nM | 6.08 nM | BG87P (mouse anti-CLDN6 antibody, hybridoma clone) (antibody, V domains shown, Mouse antibody purified from hybridoma supernatant on protein A; also called clone BG87P) VH: QIQLQQSGPELVKPGASVKISCKASGYSFTDYHINWVKQRPGQGLEWIGWIYPGSGYTKYNEKFKVKATLTVDTSSSTAYMHLTSLTSEDSAVYFCARSGIYHYVSSYYFDHWGQGTTLTVSS VL: DIVMTQSHTFMSTSVGDRVSITCKASQDVGTAVAWYQQKPGQSPKLLIYWASTRHTGVPDRFTGSGSGTDFTLTISNVQSEDLADYFCQQYSSYTFGGGTKLEIK

Reference: US20240301062A1 (BEIGENE SWITZERLAND, published 2024)
